Laboratory results: PMC9923923 (2023)

Assays:
TLR4 = TLR4 (Homo sapiens, UniProt O00206); experiment: SPR
TLR4/MD2 complex = TLR4/MD2 complex (Homo sapiens, UniProt O00206); experiment: SPR
Sequence of TLR4/MD2 complex (O00206 24-839, chain 1 of 2): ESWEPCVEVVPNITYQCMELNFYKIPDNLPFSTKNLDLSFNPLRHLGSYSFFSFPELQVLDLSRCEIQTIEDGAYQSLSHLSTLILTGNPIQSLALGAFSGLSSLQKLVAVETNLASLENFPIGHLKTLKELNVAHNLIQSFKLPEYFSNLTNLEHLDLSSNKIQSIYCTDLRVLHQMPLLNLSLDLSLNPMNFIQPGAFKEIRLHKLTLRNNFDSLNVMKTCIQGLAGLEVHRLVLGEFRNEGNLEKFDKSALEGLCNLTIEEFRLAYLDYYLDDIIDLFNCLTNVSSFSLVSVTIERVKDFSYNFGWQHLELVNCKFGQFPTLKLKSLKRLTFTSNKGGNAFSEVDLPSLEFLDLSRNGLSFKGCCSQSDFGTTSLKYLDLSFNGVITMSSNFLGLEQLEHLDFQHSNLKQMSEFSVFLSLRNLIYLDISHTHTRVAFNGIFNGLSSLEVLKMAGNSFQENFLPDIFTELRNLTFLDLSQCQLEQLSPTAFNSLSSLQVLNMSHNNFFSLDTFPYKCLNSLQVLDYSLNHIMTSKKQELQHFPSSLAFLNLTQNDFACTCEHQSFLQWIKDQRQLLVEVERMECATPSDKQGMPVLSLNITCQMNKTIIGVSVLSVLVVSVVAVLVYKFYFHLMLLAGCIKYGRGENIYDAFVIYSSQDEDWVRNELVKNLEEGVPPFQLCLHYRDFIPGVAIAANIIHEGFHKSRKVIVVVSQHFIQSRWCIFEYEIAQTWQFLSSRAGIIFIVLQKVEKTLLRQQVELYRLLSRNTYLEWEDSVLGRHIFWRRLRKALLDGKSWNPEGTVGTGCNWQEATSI
Sequence of TLR4/MD2 complex (chain, as listed by the source, chain 2 of 2): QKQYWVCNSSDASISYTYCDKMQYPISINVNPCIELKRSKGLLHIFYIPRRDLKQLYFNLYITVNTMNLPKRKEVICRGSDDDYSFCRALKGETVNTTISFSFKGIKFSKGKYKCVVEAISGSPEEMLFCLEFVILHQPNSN

Sequence of TLR4 (O00206 24-839): as the sequence (O00206 24-839, chain 1 of 2) above

Binder	Kd (TLR4) [nM]	Kd (TLR4/MD2 complex) [nM]
eCIRP (protein, 5 nM PS-OMe miR130 (value in text)) MASDEGKLFVGGLSFDTNEQALEQVFSKYGQISEVVVVKDRETQRSRGFGFVTFENIDDAKDAMMAMNGKSVDGRQIRVDQAGKSSDNRSRGYRGGSAGGRGFFRGGRSRGRGFSRGGGDRGYGGGRFESRSGGYGGSRDYYASRSQGGSYGYRSSGGSYRDSYDSYATHNE	612	
eCIRP (protein, 5 nM PS-OMe miR130 (value in legend)) MASDEGKLFVGGLSFDTNEQALEQVFSKYGQISEVVVVKDRETQRSRGFGFVTFENIDDAKDAMMAMNGKSVDGRQIRVDQAGKSSDNRSRGYRGGSAGGRGFFRGGRSRGRGFSRGGGDRGYGGGRFESRSGGYGGSRDYYASRSQGGSYGYRSSGGSYRDSYDSYATHNE	139	

The next lines start with the values.

Kd (TLR4) [nM]	Kd (TLR4/MD2 complex) [nM]	Binder
	113	eCIRP (protein, 5 nM PS-OMe miR130) MASDEGKLFVGGLSFDTNEQALEQVFSKYGQISEVVVVKDRETQRSRGFGFVTFENIDDAKDAMMAMNGKSVDGRQIRVDQAGKSSDNRSRGYRGGSAGGRGFFRGGRSRGRGFSRGGGDRGYGGGRFESRSGGYGGSRDYYASRSQGGSYGYRSSGGSYRDSYDSYATHNE
69.7	20	eCIRP (protein) MASDEGKLFVGGLSFDTNEQALEQVFSKYGQISEVVVVKDRETQRSRGFGFVTFENIDDAKDAMMAMNGKSVDGRQIRVDQAGKSSDNRSRGYRGGSAGGRGFFRGGRSRGRGFSRGGGDRGYGGGRFESRSGGYGGSRDYYASRSQGGSYGYRSSGGSYRDSYDSYATHNE
